# Source: the supplement of paper PMC7125110
# ± gives the standard error. For part of these data: Variants at the floor of the assay were thinned out.
# B1: glmS ribozyme (parent)
# chain: AUAAAAGCGCCAGAACUACAGAAAUGUAGUUGACGAGGAGGAGGUUUAUCGAAUUUUCGGCGGAUGCCUCCAAA
# Legend:
# Settings in all cases: with glucosamine-6-phosphate
# glucosamine-6-phosphate [1] = variants of: B1; assay: kcat; higher = faster cleavage; RNA array
# Method in brief: (§1)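 The measurements used barcoded ribozyme variants on sequenced MiSeq chips, transcribed in situ by E. coli RNA polymerase and tracked at 37 °C with a hybridised Cy3 probe. Glucosamine-6-phosphate, 40 μM to 10 mM in HEPES/KCl/Mg(OAc)2 buffer, was flowed in while tiles were imaged over ~14 h. Baseline-normalised signals, also normalised to non-cleaving reference variants, gave per-tile medians that were fit to one- or two-exponential decays for kobs. kcat and KM resulted from weighted Michaelis–Menten fits across concentrations.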
# glucosamine-6-phosphate [2] = variants of: B1; assay: self-cleavage kobs at 160 uM GlcN6P; higher = faster cleavage; RNA array
# Method in brief: as §1
# glucosamine-6-phosphate [3] = variants of: B1; assay: self-cleavage kobs at 640 uM GlcN6P; higher = faster cleavage; RNA array
# Method in brief: as §1
# glucosamine-6-phosphate [4] = variants of: B1; assay: self-cleavage kobs at 2500 uM GlcN6P; higher = faster cleavage; RNA array
# Method in brief: as §1
# glucosamine-6-phosphate [5] = variants of: B1; assay: self-cleavage kobs at 10000 uM GlcN6P; higher = faster cleavage; RNA array
# Method in brief: as §1
# glucosamine-6-phosphate [6] = variants of: B1; assay: KM; higher = weaker cofactor use; RNA array
# Method in brief: as §1
# glucosamine-6-phosphate [7] = variants of: B1; assay: self-cleavage kobs at 40 uM GlcN6P; higher = faster cleavage; RNA array
# Method in brief: as §1
Variant,kcat (glucosamine-6-phosphate [1]),self-cleavage kobs at 160 uM GlcN6P (glucosamine-6-phosphate [2]),self-cleavage kobs at 640 uM GlcN6P (glucosamine-6-phosphate [3]),self-cleavage kobs at 2500 uM GlcN6P (glucosamine-6-phosphate [4]),self-cleavage kobs at 10000 uM GlcN6P (glucosamine-6-phosphate [5]),KM (glucosamine-6-phosphate [6]),self-cleavage kobs at 40 uM GlcN6P (glucosamine-6-phosphate [7])
G7A G37C U47A,1.02e-05 ± 2.4e-06 s⁻¹,< 1e-05 s⁻¹,–,–,–,–,–
G40C U45G,0.000791 ± 0.00034 s⁻¹,9.8e-05 ± 1.7e-05 s⁻¹,0.000646 ± 0.00013 s⁻¹,0.000445 ± 7.5e-05 s⁻¹,0.00114 ± 0.00025 s⁻¹,–,–
U30A U31C,0.00588 ± 0.00051 s⁻¹,0.000203 ± 4.9e-05 s⁻¹,0.000754 ± 0.00011 s⁻¹,0.00197 ± 0.00041 s⁻¹,0.00423 ± 0.0006 s⁻¹,4300 ± 500 µM,5.91e-05 ± 1.1e-05 s⁻¹
A12C G60A,< 1e-05 s⁻¹,< 1e-05 s⁻¹,< 1e-05 s⁻¹,–,–,–,–
U31A U69G,5.26e-05 ± 7e-06 s⁻¹,4.7e-05 ± 1.3e-05 s⁻¹,6.47e-05 ± 1.5e-05 s⁻¹,5.62e-05 ± 1.2e-05 s⁻¹,4.26e-05 ± 9.9e-06 s⁻¹,–,–
C11G,< 1e-05 s⁻¹,–,–,–,< 1e-05 s⁻¹,665 ± 260 µM,< 1e-05 s⁻¹
A14G A64U,0.000311 ± 2.2e-05 s⁻¹,–,7.9e-05 ± 1e-05 s⁻¹,0.000199 ± 2.7e-05 s⁻¹,0.000257 ± 2.3e-05 s⁻¹,1830 ± 300 µM,–
U45A A52G,0.00326 ± 0.00073 s⁻¹,0.000155 ± 2.1e-05 s⁻¹,0.000699 ± 8.5e-05 s⁻¹,0.00135 ± 0.00014 s⁻¹,0.00293 ± 0.00044 s⁻¹,2900 ± 900 µM,5.17e-05 ± 1e-05 s⁻¹
G13A A53G,0.00138 ± 0.00018 s⁻¹,6.12e-05 ± 1.3e-05 s⁻¹,0.00017 ± 2e-05 s⁻¹,0.000498 ± 5.7e-05 s⁻¹,0.000981 ± 0.00011 s⁻¹,4280 ± 820 µM,–
C67U U69A,4.62e-05 ± 6.3e-06 s⁻¹,–,5e-05 ± 1.8e-05 s⁻¹,4.79e-05 ± 1.1e-05 s⁻¹,3.56e-05 ± 1.5e-05 s⁻¹,–,< 1e-05 s⁻¹
C50A C61G,2.25e-05 ± 7e-06 s⁻¹,–,–,–,–,–,–
A14U A53U,0.00789 ± 0.00051 s⁻¹,0.000453 ± 9.2e-05 s⁻¹,0.00157 ± 0.00019 s⁻¹,0.00355 ± 0.00044 s⁻¹,0.00654 ± 0.00056 s⁻¹,2540 ± 240 µM,0.000127 ± 1.2e-05 s⁻¹
A14C C16A,6.62e-05 ± 7.2e-06 s⁻¹,–,2.75e-05 ± 1.3e-05 s⁻¹,6.73e-05 ± 1.1e-05 s⁻¹,5.95e-05 ± 6.9e-06 s⁻¹,–,–
A52C,2.8e-05 ± 8.9e-07 s⁻¹,< 1e-05 s⁻¹,1.03e-05 ± 3.3e-06 s⁻¹,2.17e-05 ± 1.5e-06 s⁻¹,2.56e-05 ± 1.3e-06 s⁻¹,835 ± 150 µM,< 1e-05 s⁻¹
U57A G66A,0.000171 ± 2.8e-05 s⁻¹,–,–,6.97e-05 ± 2.3e-05 s⁻¹,0.00012 ± 3.2e-05 s⁻¹,4040 ± 1400 µM,–
